# Paper PMC9408938
# What was measured:
# [1] = target: T1, Human interferon-gamma receptor chain-1 (human (endogenous in WISH)) (UniProt P15260)
# T1 sequence: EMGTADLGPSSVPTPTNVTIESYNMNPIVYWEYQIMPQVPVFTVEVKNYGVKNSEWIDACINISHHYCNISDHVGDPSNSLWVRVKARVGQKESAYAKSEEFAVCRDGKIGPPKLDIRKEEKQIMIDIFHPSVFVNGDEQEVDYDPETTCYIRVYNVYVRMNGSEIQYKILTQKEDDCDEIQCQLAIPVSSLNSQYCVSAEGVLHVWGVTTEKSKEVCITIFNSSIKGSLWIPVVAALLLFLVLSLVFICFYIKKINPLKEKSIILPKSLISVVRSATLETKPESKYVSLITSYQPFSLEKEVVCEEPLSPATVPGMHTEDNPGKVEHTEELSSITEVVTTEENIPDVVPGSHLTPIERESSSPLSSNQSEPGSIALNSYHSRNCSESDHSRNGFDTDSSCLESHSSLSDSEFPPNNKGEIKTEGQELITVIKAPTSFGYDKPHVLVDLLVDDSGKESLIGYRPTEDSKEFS
# [2] = target: T1, Human interferon-gamma receptor chain-1 (human (endogenous in WISH)); remark: listed apart in the source
# Chain of Human interferon-gamma (P01579 24-161): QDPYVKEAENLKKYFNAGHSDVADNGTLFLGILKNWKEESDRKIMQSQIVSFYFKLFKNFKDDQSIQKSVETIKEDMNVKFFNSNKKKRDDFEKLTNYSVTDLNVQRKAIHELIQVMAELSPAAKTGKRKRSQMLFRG
substance,measurement,setting,value
Human interferon-gamma (from UniProt P01579 24-161) (ligand),"ratio of pSTAT1 to total STAT1 (Western blot, normalised to β-actin) in hIFN γ-stimulated WISH cells cultured under standard conditions (control) (ratio pSTAT1/STAT1)",[1],3.14
same,"ratio of pSTAT1 to total STAT1 (Western blot, normalised to β-actin) in hIFN γ-stimulated WISH cells cultured with 30 mM NaClO3 (reduced HS sulfation) (ratio pSTAT1/STAT1)",[1],1.7
same,"antiproliferative activity of hIFN γ (15 ng/mL) by modified kynurenine bioassay, optical density at 490 nm, WISH cells cultured with 30 mM NaClO3",[2],0.051 OD 490 nm
same,"antiproliferative activity of hIFN γ (15 ng/mL) by modified kynurenine bioassay, optical density at 490 nm, untreated WISH cells",[2],0.377 OD 490 nm
same,"lowering of the biological activity (hIFN γ signal, kynurenine bioassay) in WISH cells cultured with NaClO3 against untreated cells",[2],86%
